Tested on: MS2 coat protein
Test: apparent KD of MS2 coat protein; designed switch direction (-1 OFF switch, 1 ON switch): -1; higher = weaker reporter binding
Procedure, shortened: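 Normalised cluster fluorescence was curve-fitted, and each design's median over clusters is its apparent KD. Before this, SNAP-549-labelled MS2 coat protein was titrated from 0.7 or 1.5 nM, doubling to 3 µM, over RNA switches transcribed on Illumina chips by stalled E. coli RNA polymerase. Titrations had no input, 200 uM small-molecule ligand, or an oligonucleotide input, and steps lasted 0.8–1.5 h (lowest) to 10–20 min (highest).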

[1] = Eterna round: R95, input ligand: microRNA oligo, concentration not stated
[2] = input ligand: microRNA oligo, concentration not stated
[3] = Eterna round: R95, input ligand: FMN 200 uM
[4] = Eterna round: R95, input ligand: none

Sequence | apparent KD of MS2 coat protein (input ligand: FMN 200 uM) [µM] | apparent KD of MS2 coat protein (input ligand: none) [µM] | apparent KD of MS2 coat protein [1] [µM] | apparent KD of MS2 coat protein [2] [µM] | apparent KD of MS2 coat protein [3] [µM] | apparent KD of MS2 coat protein [4] [µM]
GUUUCACAUGAGGAUCACCCAUGUGAGGAUAUGGACUUUUUGGCAAUAGUCGUUGGGUUCAGAAGGCGCGUGAU [JR_Exc1_Sub006] (Eterna round: R97, puzzle: Exclusion 1) | 0.0452 | 0.0494 | – | – | – | –
GAUAUGUAAGGAUAUCUAGAAACGAGCGCAGGCUCAAGAAAAGAGAAGGUACAUGAGGAUCACCCAUGUUCCUG [EX4 A.13] (Eterna round: R97, puzzle: Exclusion 4) | 0.0211 | 0.0179 | – | – | – | –
AAGAAACAUGAGGAUCACCCAUGUGAGGAUAUGAUGCGAAUUAUGUAUGUAGUAAGCAUCAGAAGGCACAAAGG [Mat - Mod Mix D39] (puzzle: Exclusion 1) | – | – | 0.143 | – | – | –
GUAUGUUCCUGAGGAUAUCGAGCCAUCGACCGCCGAGAAGGCAGAGACAUGAGGAUCACCCAUGUGAAGUAAUGGCGAUGAGAA [Eternabot solution 13] (Eterna round: R96, puzzle: Exclusion NG 1) | 0.0154 | 0.017 | – | 0.0108 | – | –
GCCGGAUAAGUGAGGAUAUACCUAUGGAUACAUAGGUAGAAGGCACAUGAGGAUCACCCAUGUUCCUCUCCGGC [JL-BMX4-4.17 Eli mod] (Eterna round: R97, puzzle: Brourd's mod of Exclusion 4) | 0.406 | 0.0303 | – | – | – | –
ACACUGCGAGGAUAUACAUGAGGAUCACCCAUGUUAAGGAAGUCAAGGUUAAUUUAAGGUAGAAGGCGCUUAUU [JR_Ex3_Sub013] (Eterna round: R97, puzzle: Exclusion 3) | 0.0462 | 0.0397 | – | – | – | –
AAUAUGUGAGGAUAUCAGGUGUGCUAGCGUACUGGUACAUCUGAGAAGGCACAUGAGGAUCACCCAUGUAUCUU [Mat - Exclusion 4 - Mod of JL - D45] (puzzle: Exclusion 4) | – | – | 0.0243 | – | – | –
GCAGGAUAAGUUAGGAUAUACCUAUGGAUACAUAGGUAGAAGGGACAUGAGGAUCACCCAUGUGACUCACCUGC [Fiskers BMX 4 - 63] (puzzle: Brourd's mod of Exclusion 4) | – | – | 0.0184 | – | 0.0335 | 0.0224
CCUUAACAUGAGGAUCACCCAUGUGAGGAUAUGAUGCAGCAGUGGUCUACGCUGUGCAUCAGAAGGUACAUGGU (puzzle: Exclusion 1) | – | – | 0.0389 | – | – | –
UUAAAUCAUGUAGGAUAUGCGUGGAGAAGCUAUGCAGAAGGACAUGAGGAUCACCCAUGUGCUUCCGUCUGCGUACAGAUGGUA [Mat - Exclusion NG 1 - Mod of JL - D7] (Eterna round: R96, puzzle: Exclusion NG 1) | 0.0845 | 0.0195 | – | 0.0171 | – | –
GCUAGAGCAGGAUAUCUAGAUCCACACAUGAGGAUCACCCAUGUACGGUCGAAAGACCGAAGAGAAGGGCUCUAGC [Omei Ex5 E12] (Eterna round: R97, puzzle: Exclusion 5) | 0.0985 | 0.067 | – | – | – | –
CCACUUACUGAGGAUAUUGCAUCACCCGACUGAUAAGAAGGCAGAACAUGAGGAUCACCCAUGUGGGUACUCAC [Bingo-Bango-9] (Eterna round: R97, puzzle: Exclusion 6) | 0.207 | 0.155 | – | – | – | –
AAUAUUAGAGGAUAUGCACUUGCACUAACGAAAUCCUCACCACAUGAGGAUCACCCAUGUAGAAGGCUGGUGGU [Eternabot (L2) Solution 65] (Eterna round: R97, puzzle: Exclusion 2) | 0.354 | 0.487 | – | – | – | –
AGGUGCUUCUGGAGACAUGAGGAUCACCCAUGUCGAGUUAGCGAGGAUAUCGGUAAGGCAUGUGAUGAGAAGGCGCAAACCGAU [Ex NG3 #50] (Eterna round: R96, puzzle: Exclusion NG 3) | 0.0228 | 0.0243 | – | 0.0127 | – | –
CGCACGUAAGGAUAUACAUGAGGAUCACCCAUGUGUAAAUACUGCAACGUGGUGAAUAGUAGAAGGUACGAUGC [Eternabot (L2) Solution 56] (Eterna round: R97, puzzle: Exclusion 3) | 0.0555 | 0.0183 | – | – | – | –
CGGGAGGGACAAGCUUUUUGCACGUCUGUUAUUGAUGCUACAUGAGGAUCACCCAUGUUUAAGAUGUGUGAGGAUGG [JR_SV3TOV2_Sub053] (puzzle: Sensor v3, turn-off variant 2) | – | – | 0.0576 | – | 0.0262 | 0.0313
UGAGUCUAAGGAUAUCUGAGGCGCGACAUGAGGAUCACCCAUGUCUCCAAGGAGAGAGCUGGAGAAGGUAGCUGGA [Eternabot (L2) Solution 81] (Eterna round: R97, puzzle: Exclusion 5) | 0.0175 | 0.0186 | – | – | – | –

Sequence | apparent KD of MS2 coat protein (input ligand: FMN 200 uM) [µM] | apparent KD of MS2 coat protein (input ligand: none) [µM] | apparent KD of MS2 coat protein [1] [µM] | apparent KD of MS2 coat protein [2] [µM] | apparent KD of MS2 coat protein [3] [µM] | apparent KD of MS2 coat protein [4] [µM]
AAACAGCAAGGAUAUACGGGCUGUGCUUUUCAUAUCAUACAACAUGAGGAUCACCCAUGUAGAAGGUGCAACAA [Ex2 #3] (Eterna round: R97, puzzle: Exclusion 2) | 0.146 | 0.044 | – | – | – | –
UCGUUUCGUGUAGGAUAUUGGCCUGCUCUGGGUCGAGAAGGACAUGAGGAUCACCCAUGUAUGUUAUUAUCACGCGUGGCGCAU [Design 82] (Eterna round: R96, puzzle: Exclusion NG 1) | 0.124 | 0.0366 | – | 0.034 | – | –
AGUCAGGCGGUAGGAUAUCCAAACCGAGUGACCCUUUCAUAACAUGAGGAUCACCCAUGUCGGUGGGAGAAGGGCCGUACGGCA [Mat - Exclusion NG 2 - Mod of JL - D65] (Eterna round: R96, puzzle: Exclusion NG 2) | 0.41 | 0.159 | – | 0.173 | – | –
CGGGCGCGAGGAUAUACAUGAGGAUCACCCAUGUAACGGCGAGCAAUGUUUGUUGCGUGUAGAAGGUGUGUUUG [-20.1, -18.7 kcal, A 27%] (Eterna round: R97, puzzle: Exclusion 3) | 0.112 | 0.155 | – | – | – | –
GGAUCGAGUGUGAGGAUAUGCUGGUCCUUGGAUCAGCAGAAGGCACAUGAGGAUCACCCAUGUGAAGACGAUCC [Mat - Exclusion 4 - JL Mod - D73] (Eterna round: R96, puzzle: Brourd's mod of Exclusion 4) | 0.23 | 0.0287 | – | 0.0231 | – | –
CAUGGAUGUGAGCCGCAUUACAUGAGGAUCACCCAUGUCAACAAGCUUUUUGCUUGUCUUACGCGGCGGCAUCUAAA [Abebies] (puzzle: Sensor v3, turn-off variant 1) | – | – | 0.00844 | – | 0.0113 | 0.0103
GCGAAAGCAAGCAGGUGAAACAUGAGGAUCACCCAUGUCCUCAUUUGCUCGUCUUAUAAGCUAUGCGAAAGCAUAGC [Sensor 3, v1 - 3] (puzzle: Sensor v3, turn-off variant 1) | – | – | 0.113 | – | 0.0137 | 0.0125
AUAAUGUAAGGAUAUCAGUCGACUAGCCUCGGCUAGUCGACUGAGAAGGUACAUGAGGAUCACCCAUGUGUUUC [E4/12-A3] (Eterna round: R97, puzzle: Exclusion 4) | 0.244 | 0.0356 | – | – | – | –
CCGCUGUCAGGAUAUCGUGCAUACAACGAAAGUUCUAUGUGCGAGAAGGGACAUGAGGAUCACCCAUGUUUGCG [Omei Ex4 A20] (Eterna round: R97, puzzle: Exclusion 4) | 0.0413 | 0.0282 | – | – | – | –
UUUUAACAUGAGGAUCACCCAUGUGAGGAUAUCGAAAUUUAUAUUAAUAUUAUUUAAUCGAGAAGGCACAUUUU [JMF 44] (puzzle: Exclusion 1) | – | – | 0.1 | – | – | –
UUAUAUAAUGUGAGGAUAUGCUGGUCCAUAGAUCAGCAGAAGGCACAUGAGGAUCACCCAUGUAGUAAAUUUUA [Mat - Exclusion 4 - JL Mod - D12] (puzzle: Brourd's mod of Exclusion 4) | – | – | 0.0145 | – | 0.0242 | 0.0148
AGUAGUUACGUAGGAUAUGAGGAUCACCCAUAGAAGGAUAUCGAAAGAGAAGGUCUGAGGAUUACCCAGAAGGACGUGACUACA [pwkr exNG2 2xF5 2xFMN.9] (Eterna round: R96, puzzle: Exclusion NG 2) | 0.334 | 0.138 | – | 0.113 | – | –
UGAUCUAGCGGAGGAUAUACAUGAGGAUCACCCAUGUAAGUCGCCUUACCGUAGUGAAGCAUCAUGUAGAAGGCCGCUAGAUCU [MOD4 ENG2 3.62 by JL (unstable but ms2 present in dot)] (Eterna round: R96, puzzle: Exclusion NG 2) | 0.153 | 0.0573 | – | 0.0199 | – | –
GGUCCUCUGGUGAGGAUAUCUACCCAGGCAGCUGGAGAGAAGGCACAUGAGGAUCACCCAUGUAGCAGAAAACC [Enremadi] (puzzle: Brourd's mod of Exclusion 4) | – | – | 0.00956 | – | – | –
ACAUGGAAGCAGGAUAUGCUUGUAUAAUUGUUUGCAGAAGGGCUAACAUGAGGAUCACCCAUGUAAGAGGUCUA [JR_E6_Sub061] (puzzle: Exclusion 6) | – | – | 0.0159 | – | – | –
UCGGCGCGAGGAUAUGCGGCUGGUGCUUCGGGCCCUGGCGUACAUGAGGAUCACCCAUGUAGAAGGCGCGCCGC [Apr-15 SS2-41] (puzzle: Exclusion 2) | – | – | 0.0102 | – | – | –
UUUUGGCAUGUAGGAUAUGGGUCCGAUUGGGAUUUAGAAGGACAUGAGGAUCACCCAUGUGCCCUUACUUGGUCUUUUUUUUUU [EXclNG1-LROPPY19] (Eterna round: R96, puzzle: Exclusion NG 1) | 0.298 | 0.228 | – | 0.128 | – | –

Source: the supplement of paper PMC9170038
